In PMC6914368 (Nature, 2019):

Tests used:
[1] = biological target: EccB3:EccC3:EccD3 subcomplex (Mycobacterium smegmatis) (UniProt A0QQ39); assay: SEC
[2] = biological target: ESX-3 core complex protomer EccB3:EccC3:EccD3:EccE3, from pMyNT:ESX-3 (whole gene cluster) (Mycobacterium smegmatis) (UniProt A0QQ39); assay: SEC
[3] = biological target: ESX-3 core complex protomer EccB3:EccC3:EccD3:EccE3 (1:1:2:1), from pMyNT:Mini (Mycobacterium smegmatis) (UniProt A0QQ39); assay: cryo-EM structure
[4] = biological target: T1, EccC3 with C-terminal His-tag (Mycobacterium smegmatis, UniProt A0QQ40 1-1325); assay: densitometry of SDS-PAGE bands
T1 sequence: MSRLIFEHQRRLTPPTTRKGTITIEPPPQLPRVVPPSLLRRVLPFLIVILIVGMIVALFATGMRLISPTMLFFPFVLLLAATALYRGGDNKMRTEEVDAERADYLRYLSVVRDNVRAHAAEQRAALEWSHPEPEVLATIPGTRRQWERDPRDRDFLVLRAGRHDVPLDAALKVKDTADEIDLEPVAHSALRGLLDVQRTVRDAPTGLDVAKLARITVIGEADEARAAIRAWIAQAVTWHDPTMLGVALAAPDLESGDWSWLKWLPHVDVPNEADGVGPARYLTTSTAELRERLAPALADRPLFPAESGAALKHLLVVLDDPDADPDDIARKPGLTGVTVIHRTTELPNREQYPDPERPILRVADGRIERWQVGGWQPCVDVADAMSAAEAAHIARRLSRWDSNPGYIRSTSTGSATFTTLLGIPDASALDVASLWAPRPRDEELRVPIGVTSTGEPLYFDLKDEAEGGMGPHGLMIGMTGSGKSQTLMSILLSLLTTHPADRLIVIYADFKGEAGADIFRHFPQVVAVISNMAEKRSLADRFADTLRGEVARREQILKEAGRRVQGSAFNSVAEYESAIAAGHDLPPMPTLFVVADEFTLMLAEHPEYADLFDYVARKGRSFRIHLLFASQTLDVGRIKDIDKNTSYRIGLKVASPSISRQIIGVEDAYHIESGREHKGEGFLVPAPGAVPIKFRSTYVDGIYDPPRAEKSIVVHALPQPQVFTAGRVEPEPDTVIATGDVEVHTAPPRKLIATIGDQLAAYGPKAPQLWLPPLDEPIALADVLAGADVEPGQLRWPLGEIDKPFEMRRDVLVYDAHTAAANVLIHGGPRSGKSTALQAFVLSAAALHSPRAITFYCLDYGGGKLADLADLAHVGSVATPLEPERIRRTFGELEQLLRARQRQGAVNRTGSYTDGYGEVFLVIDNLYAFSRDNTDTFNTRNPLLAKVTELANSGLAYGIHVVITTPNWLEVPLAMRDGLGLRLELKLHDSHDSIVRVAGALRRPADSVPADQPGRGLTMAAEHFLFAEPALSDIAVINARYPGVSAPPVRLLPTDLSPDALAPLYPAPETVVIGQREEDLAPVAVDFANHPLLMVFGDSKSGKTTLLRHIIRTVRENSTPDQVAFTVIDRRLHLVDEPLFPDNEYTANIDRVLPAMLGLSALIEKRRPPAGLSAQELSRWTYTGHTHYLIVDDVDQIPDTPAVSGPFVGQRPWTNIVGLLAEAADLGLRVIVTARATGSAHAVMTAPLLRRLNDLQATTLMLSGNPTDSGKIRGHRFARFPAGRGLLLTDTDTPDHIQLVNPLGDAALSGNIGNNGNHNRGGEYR

SEC-MALS = biological target: the molecule itself; assay: SEC-MALS
cryo-EM structure = biological target: the molecule itself; assay: cryo-EM structure

## EccB3:EccC3:EccD3 subcomplex (from UniProt A0QQ39;A0QQ40;A0QQ46)
[1]
  stoichiometry N: 2

## ESX-3 core complex protomer EccB3:EccC3:EccD3:EccE3, from pMyNT:ESX-3 (whole gene cluster) (from UniProt A0QQ39;A0QQ40;A0QQ46;A0QQ48)
[2]
  stoichiometry N: 2

## ESX-3 core complex protomer EccB3:EccC3:EccD3:EccE3 (1:1:2:1), from pMyNT:Mini (from UniProt A0QQ39;A0QQ40;A0QQ46;A0QQ48)
[3]
  stoichiometry N: 2

B1: EccE3 (natural protein)
chain: MTARIALASLFVVAAVLAQPWQTTTQRWVLGVSIAAVIVLLAWWKGMFLTTRIGRALAMVRRNRAEDTVETDAHRATVVLRVDPAAPAQLPVVVGYLDRYGITCDKVRITHRDAGGTRRSWISLTVDAVDNLAALQARSARIPLQDTTEVVGRRLADHLREQGWTVTVVEGVDTPLPVSGKETWRGVADDAGVVAAYRVKVDDRLDEVLAEIGHLPAEETWTALEFTGSPAEPLLTVCAAVRTSDRPAAKAPLAGLTPARGRHRPALAALNPLSTERLDGTAVPLPAVVRTSVKGSVEHEAAQEAGHPA
[4]
  stoichiometry N: 1

B2: EccD3 with N-terminal Strep-tag II (natural protein)
chain: MSENTVMPIVRVAVLAAGDDGGRLTEMALPSELPLREILPAVQRIVQPARENDGAADPAAAPNPVRLSLAPIGGAPFSLDATLDTVGVVDGDLLALQAVPSGPPAPRIVEDIADAAVIFSEARRRQWGPTHIARGAALALIGLILVGTGLSVAHRVITGDLLGQFIVSGIALATVIAALAVRNRSAVLATSLAVTALVPVAAAFALGVPGDFGAPNVLLAAAGVAAWSLISMAGSPDDRGIAVFTATAVTGVGVLLVAGAASLWVISSDVIGCALVLLGLIVTVQAAQLSAMWARFPLPVIPAPGDPTPAARPLSVLADLPRRVRVSQAHQTGVIAAGVLLGVAGSVALVSSANASPWAWYIVVAAAAGAALRARVWDSAACKAWLLGHSYLLAVALLVAFVIGDRYQAALWALAALAVLVLVWIVAALNPKIASPDTYSLPMRRMVGFLATGLDASLIPVMALLVGLFSLVLDR
SEC-MALS
  stoichiometry N: 2
[4]
  stoichiometry N: 2

B3: EccD3 (untagged, from the ESX-3 gene cluster plasmid pMyNT:ESX-3) (natural protein)
chain: B2 chain
[4]
  stoichiometry N: 2

B4: EccB3 (natural protein)
chain: MTGPVNPDDRRSFSSRTPVNENPDGVQYRRGFVTRHQVSGWRFVMRRIASGVALHDTRMLVDPLRTQSRAVLTGALILVTGLVGCFIFSLFRPGGVPGNNAILADRSTSALYVRVGEQLHPVLNLTSARLISGSPDNPTMVKTSEIDKFPRGNLLGIPGAPERMVQNAATDAEWTVCDAVGGANPGVTVIAGPLGADGERAAPLPPDHAVLVHSDAEPNPGDWLLWDGKRSPIDLADRAVTDALGLGGQALAPRPIAAGLFNAVPAAPALTAPVIPDAGAAPQFELSLPVPVGAVVVAYDADNTARYYAVLSDGLQPISPVLAAILRNTDSHGFAQPPRLGPDEVARTPMSRGLDTSAYPDNPVTLVEASAHPVTCAHWTKPSDAAESSLSVLSGAVLPLAEGLHTVDLVGAGAGGAANRVALTPGTGYFVQTVGAEPGSPTAGSMFWVSDTGVRYGIDTAEDDKVVAALGLSTSPLPVPWSVLSQFAAGPALSRGDALVAHDAVSTNPNSARMEASR
[4]
  stoichiometry N: 1
cryo-EM structure
  stoichiometry N: 2
